Test results reported in article PMC8967028.

These substances were tested against SARS-CoV-1 spike (S) receptor binding domain (SARS-CoV-1) (assay: SPR).

| Substance | koff [s⁻¹] |
| --- | --- |
| VHH-72-Fc L97W (Fc fusion) | 0.00018 |
| VHH-72-Fc L97W,T99V (Fc fusion) | 8e-05 |
| VHH-72-Fc S56M (Fc fusion) | 0.00025 |
| VHH-72-Fc S56M,L97W (Fc fusion) | 0.0002 |
| VHH-72-Fc S56M,L97W,T99V (Fc fusion) | 0.00013 |
| VHH-72-Fc S56M,T99V (Fc fusion) | 0.00016 |
| VHH-72-Fc T99V (Fc fusion) | 0.00012 |
